From publication PMC10783083, “Val43 residue of NsrR is crucial for the nitric oxide response of Salmonella Typhimurium” come the findings set out here.

Data set [1] deals with NsrR V43A (Salmonella enterica serovar Typhimurium …, UniProt Q8ZKA3 1-141, V43A). As to the kind of experiment: EMSA; no NO; 0.0625-4 uM protein; stronger than WT. To be noted: protein: recombinant; tags: N-terminal His (pET28a); chain copies: 2; label: 32P (5' by T4 PNK); blunt.
In data set [2] the target is NsrR V43A, in vitro translated (Salmonella enterica serovar Typhimurium …, UniProt Q8ZKA3 1-141, V43A). Description: EMSA; 2 uM; clear shift. Conditions: protein: ivt; tags: N-terminal His (pET28a); chain copies: 2; label: 32P (5' by T4 PNK); blunt. (In general: A gel shift assay detects complexes by their altered migration in electrophoresis.)

B1: hmp probe (dsDNA)
DNA 1: AAGATGCATTTGATATACATCATT
DNA 2: AATGATGTATATCAAATGCATCTT
On to B1, for which the binding result in data set [1] and in data set [2] was “binds” each time.
